B1: TPR t1 (parent)
chain: GACCAAUCUGCCCUCAGAGCUCGAGAACAUCUUCGGAUGCAGAGGAGGCAGGCUUCGGUGGCGCGAUAGCGCCAACGUCCUCAACCUCCAAUGCAUCCCACCACAUGAUGAUGCCUGAAGAGCCUUGGUUUUUUG

Variants of: B1
Assay: polymerase ribozyme fitness, log enrichment relative to wild type (log ratio); higher = more active; in vitro selection for triplet polymerase activity
In short: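 Genotype fitness is the logarithm of its enrichment divided by wild-type enrichment, using inverse-variance-weighted averages of replicates. That logarithm is base 2. Enrichment was measured by Illumina sequencing of input and output libraries from one triplicate in vitro selection round, with frozen incubation at −7 °C, on PCR-built, transcribed mutant libraries of each subunit of a heterodimeric triplet polymerase ribozyme, retaining genotypes with ≥10 input reads and ≥1 read per output.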

Going from GAUCAAGCUGCCCUCAGAGUGCGAGAACAUCUUCGGAUGCAGAGGAGGCAGGCUUCGGUGGCGCGAUAGCGCUAACGUCCUCAACCUCCAAUGCAUCCCACCACAUGAUUAUGCCUGAAGAGCGUUGGUUUUUUG to GAUCAAUCAGCCCUCAGAGCUCGAGAACAUCUUCGGAUGCAGAGGAGGCAGGCUUCGGUGGCGCGAUAGCGCAAACGUACUCAACCUCCAAGGCAUCCCACCACAUGAUGAUGCCUGAAGAGCCUUGGUUUUUUG, the “polymerase ribozyme fitness (log ratio)” value rises from -4.5 to -3.38.

Going from GAUCAAUCUGCCCUCAGAGCUCGAGAACAUCUUCGGAUGCAGAGGAGGCAGGCUUCGGUGGCGCGAUAGCGCCAACGUCCUCAACCUCCAAUGCAACCCACCACAUGAUGAUGCCUGAAGAGCCUUGGUUUUUUG to GAUCAAGCUGCCCUCAGAGCUCGAGAACAUCUUCGGAUGCAGAGGAGGCAGGCUUCGGUGGCGCGAUAGCGCCAACGUCCUCAACCUCCAAUGCAUCCCACCACAUGAUGUUGCCUGAAGAGCCUUGGUUUUUUG, the “polymerase ribozyme fitness (log ratio)” value falls from -1.12 to -1.66.

GAUCAAUCUGCCCUCAGAGCUCGAGAACAUCUUCGGAUGCAGAGGAGGCAGGCUUCGGUAGCGCGAUAGCGCCAACUUCCUCAACCUCCAAUGCAUCCCACCACAUGAUGAUGCCUCAAGAGCCUUGGUUUUUUG and GAUCAAUCAGCCCUCAGAGCUCGAGAGCAUCUUCGGAUGCAUAGGAGGCAGGCUUCGGUGGCGCGAUAGCGCCAACGUCCUCAACCUCCAAUGCAUCCCUCCACAUGAUGAUGCCUGAAGAGCCUUGGUUUUAUG are within 0.2 log units of each other in “polymerase ribozyme fitness (log ratio)” value: -3.58 for the first, -3.45 for the second.

First: GAUCAAUCUGCCCUCAGAGCUCGAGAACAUCUUCGGAUGCAGAGGAAGCAGGCUUCGGUAGCGCGAUAGCGCCAACGUCCUCAAGCUCCAAUGCAUCCCACCACAUGAUGAUGCCUGAAGAGUCUUGGUUUUUUG
Second: GAUCAAUCUGCCCUCAGAGCUCGAGAACAUCUUCGGAUGCAGAGGAGGCAUGCUUCGGUGGCGCGAUAGCGCCAACGUCUUCAACCUCCAAUGCAUCCCACCACAUGAUGAUGCCUGAAGAGCCUUGGUUUUUUG
The “polymerase ribozyme fitness (log ratio)” value of the first is lower: -2.64 for the first, -2.32 for the second.

Going from GAUCAAUCUGCCCUCAGAGCUCGAGAACAUCUUCGGAUGCAGAGGAGGCAGGCUUCAGUGGCGCGAUAGCGUCAACGUCCUCAACCUCCAAUGCAUCCCACCACAUGAUGAUGCCUGAAGAGCCUUGGUUUUUUG to GAUCAAUCUGCCCUCAGAGCUCGAGAACAUCUUCGGAUGCAGAGGAGGCAGGCUUCGGUGGCGCGAUAACGCCAACGUCCUCAACCUCCAAUGCAUCCCACCACAUGAUGAUGCCUGAAGAGCCUUGGUUUUUUG, the “polymerase ribozyme fitness (log ratio)” value falls from -0.755 to -2.67.

Compared with GAUCAAUCUGCCCUCAGAGCACGAGAACAUCUUCGGAUGCGGAGGAGUCAGGCUUCGGUGGCGCGAUAGCGCCAACGUCCUCAACCUCCAAUGCAUCCCAGCACAUGAUGAUGCCUGAAGAGCGUUGGUUUUUUG, GAUCAAUCUGCCCUCAGAGCUCGAGAACAUCUUCGGAUGCAGAGGAGGCAGGCUUCGGUGGCGCGAUAGCGCCAACGUCCUCAACCUCCAAUGCAUCCCACCACAUGAUGAUGCCUGAAGAACCUUGGUUUUUUG is higher in “polymerase ribozyme fitness (log ratio)” value: -1.96 for the first, -1.01 for the second.

Going from GAUCAAUCUGCCCUCAGAGCUCGAGAACAUCUUCGGAUGCAGAGGAGGCAGGCUUCGGUGGCGCGAUAGCGCCAACGUCCUCAACCUCCAAGGCAUCCCACCACAUGAUGAUGCCUUAUGAGCCUUGGUUUUUUG to GACAACUCUGGCCUCAGAGCUCGAGAACAUCUUCGGAUGUAGAGGAGGCAGGCUUCGGUGGCGCGAUAGCGCCAACGUCCUCAACCUCCAAUGCAUCCCACCACAUGAUUAUGCCUGAAGAGCCUUGGUUUUUUG, the “polymerase ribozyme fitness (log ratio)” value rises from -5.83 to -4.57.

First: GAUCAAUCUGCCCGCAGAGCUCGAGUACAUCUUCGGAUGCAGAGGAGGCAGGCUUCGGUUGCGCGAUAGCGCCAACGUCCUCAACCUCCAAUGCAUCCCACCACAUGAUGAUGCCUGAAGAGACUUGGUUUUUUG
Second: GAUCAAUCUGCCCUCAGAGCUCGAGAACAUCUUCGGAUGCAGAGGAGGCAGGCUUCGGUGGCGCGAUAGCGCCAACGCCCUCAACCUCCAAUGCAUCCCACCACCUGAUGAUGCCUGAAGAGCUUUGGUUUUUUG
The “polymerase ribozyme fitness (log ratio)” value of the first is lower: -4.1 for the first, -1.78 for the second.

First: GAUCAAUCUGCCCUCAGAGCUCGAGAACAUCUUCGGAUGCAGAGGAGGCAGGCUUCGGUGGCGCGAUAGCGCCAACGUCCUCAACCUCCAACGCAUCCCACCACAUGAUGAUGCCUGAAGAGCCUUGGUUUUUUG
Second: GAUCAAUCUGCCCUCAGAGCUCGAGAACAUCUUCGGAUGCAGAGGAGGCAGGCUUCGGUGGCGCGAUAGCGCCAACGUCCUCAACCUCCAAUGCAUCCCACCACAUGAUGAGGACUGAAGAGCCUUGGUUUUUUG
The “polymerase ribozyme fitness (log ratio)” value of the first is higher: -1.23 for the first, -3.78 for the second.

Going from GAUCAAUCUGCCCUCAGAGCUCGAGAACAUCUUCGGAUGCAGAGGAGGCAGGCUUCGGUGGCGCGAUAGCGCCAACGUCCUCAACCACCAAUGCAUCCCACCCCAUGAUGAUGCCUGAAGAGCCUUGGUUUUUUG to GAUCAAUCUGCCCUCAGAGCUCGAGAACAUCUUCGGAUGCAGAGGAGGCAGGCUUCGGUGGCGCGAUAGCGCCAACAUCCUCAACCUCCAAUGCAUCCCACCACAUGAUGAUGCCUGAAGUGCCUUGGUUUUUUG, the “polymerase ribozyme fitness (log ratio)” value rises from -5.54 to 2.03.

First: GAUCAAUCUGCCCUCAGAGCUCGAGAACAUCUUCGGAUGCAGAGGAGGCAGGCUUCGGUGGCGCGAUAUCGCCAACGUCCUCAACCUCCAAUGCAUCCCACCACAUGAUGAUCCCUGAAGAGCCUUGGUUUUUUG
Second: GAUCAAUCUGCCCUCAGAGCUCGAGAACAUCUUCGGAUGCAGAGGAGGCAGGCUUCGGUGGCGCGAUAGCUCCAACGUCCUCAACCUCCAAUGCAUCCCACCACAUGAUGAUGCCUGAAGGGCCAUGGUUUUUUG
The “polymerase ribozyme fitness (log ratio)” value of the first is lower: -1.33 for the first, 1.49 for the second.

Compared with GAUCAAUCUGCCCUCAGAGCUCGAGAACAUCUUCGGAGGCAGAGGAGGCAGGCUUCGGUGGUGCGAUAGCGCCAACGUCCUCAACCUCCAAUGCAUCCCACCACAUGAUGAUGCCUGAAAGAGCCUGGUUUUUUG, GACAAAUCUGCCCUCAGAGCUCGAGAGCAUCUUCGGAUGCAGAGGAGGCAGGCUUCGGUGGCGCGAUAGCGCCAGCGUCCUCAACCUCCAAUGCAUCCCACCACAUGAUGAUGCCUGAAUAGCCUUGGUUUUUUG is lower in “polymerase ribozyme fitness (log ratio)” value: -0.77 for the first, -4.55 for the second.

Going from GAUCAAUCGGCCCUCAGAUCUCGAGAACAUCUUCGGAUGCAGAGGAGGCAGGCUUCGCUGGCGCGAUAGCGCCAACGUCCUCAACCUCCAAUGCAUCCCACCACAUGAUGAUGCCUGAAGAGCCUUGGUUUUUUG to GAUCAAUCUGCCCUCAGAGCUCGAGAACAUCUUCGGAUGCAGACGAGGCAGGCUUCGGUGGCGCGAUAGCGCCAACGUCCUCAACCUCCAAUGCAUCCCACCACAUGAUGAUGACUGAUGACCCUUGGUUUUUUG, the “polymerase ribozyme fitness (log ratio)” value falls from -3.13 to -3.33.

Compared with GAUCAAUCUGCCCUCAGAGCUCGAGAACAUCUUCGGAUGCAGAGGAGGCAGGCUUCGGUGGCGCGAUAGCGCCAACGUCCUCAACCUCCAAUGCAUCCCACCACAUGAUGACGCCUGAAGAGCCUUGGUUUUUUG, GAUCAAUCCGCCCUCAGAGCUCGAGAACAUCUUCGGAUGCAGAGGAGGAAGGCUUCGGUGGCGCGAUAACGCCAACGUCCUCAACCUCCAAUGCAUCCCACCACAUGAUGAUGCAUGAAGAGCCUUGGUUUUUUG is lower in “polymerase ribozyme fitness (log ratio)” value: 1.51 for the first, -0.734 for the second.

Compared with GAUCAAUCUGCCCUCAGAGCUCGAGAACAUCUUCGGAUGCAGAGGAGGCAGGCUUCGGUGGCGCGAUAUCGCCAACGUCCUCAACCUCCAAUGGAUCCCACCACAUGAUGAUGACUGAAGAGCCAUGGUUUUUUG, GACAAAUCUGCCCUCAGGGCUCGAGAACAUCUUCGGAUGAAGAGGAGGCAGGCUUCGGUGGCGCGAUAGCGCCAACGUCCUCAACCUCCAAUGCAUCCCACCACAUGAUGAUGACUGAGGAGCCUUGGUUUUUUG is lower in “polymerase ribozyme fitness (log ratio)” value: -3.19 for the first, -3.79 for the second.

Compared with GAUCAAUCUGCCCUCAGAGCUCGAGAACAUCUUCGGAAGCAGAGGAGGCAGGCUUCGGUGGCGCGAUAUCGCCAACGUCCUCAACCUCCAAUGCAUCCCACCACAUGAAGAUGCCUGAAGAGCCUUGGUUUUUUG, GAUCAAUCUGCCCUCAGAGCUCGAGAACAUCUUCGGAUGCAGAGGAGGCAGGCUUCGGUGGCGCGAUAGCGCCAACGUCCUCAACCUCCAAUGCAUCCCACCACAUGAUGAUGCCUGAACAGCCUUGGUUUUUUG is higher in “polymerase ribozyme fitness (log ratio)” value: -2.41 for the first, 0.705 for the second.

Compared with GAUCAAUCUGCCCUCAGAGCUCGAGAACAUCUUCGGAUGCAGAGGAGUCAGGCGUCGGUGGCGCGAUAGCGCCAACGUCCUCAACCUCCAAUGCAUCCCACCACAUGAUGAUGCCUGAACAGCCUUGGUUUUUUG, GACAAAUCUGCCCUCAGAGCUCGAGAUCAUCUUCGGAUGCAGAGGAGGCAGGCUUCGGUGGCGCGAUAGCGCCAACGUCCUCAACCUCCAAUGCAUCCCACCACAUGAUGAUGCCUGAAGAGCCUUGGUUUUUUG is lower in “polymerase ribozyme fitness (log ratio)” value: 0.141 for the first, -3.57 for the second.

Compared with GAUCAAUCUGCCCUCAGAGCUCGAGAACAUCUUCGGAUGCAGAGGAGGCAGGCUUCGGUGGCGCGAUAGCGCCAACGUCCUCAACCUCCAAUGCAUCCCACCACAUGAUGAUGCCUGAAGAGCCAUGGUUUUUUG, GAUCAAACUGCCCUCAGAGCUCGAGAACAUCUUCGGCUGCAGAGGAGGCAGGCUUCGGUGGCGCGAUAGCGCCAACGUCCUCAACCUCCAAUGCAUCUCACCACAUGAUGAUGCCUGAAGAGCCUUGGUUUUUUG is lower in “polymerase ribozyme fitness (log ratio)” value: -1.04 for the first, -2.2 for the second.

Compared with GAUCAAUCUGCCCUCAGAGCUCGAGAACAUCUUCGGAUGCAGAGGAGGCAGGCUUCGGUGGCGCGAUAGCGCCAACGUCCUCAACCUCCAAUGCAUCCCACCACAUGAUGAUGCCUGAAGAGCCUUGGUGUUUUG, GACACAUCUGCCUUCAGAGCUCGAGAACAUCUUCGGAUGCAGAGGAGGCAGGCUUCGGUGGCGCGAUAGCGCCAACGUCCUCAACCUCCAAUGCAUCCCACCACAUGAUGAUGCCUGAAGAGCCUUGCUUUUUUG is lower in “polymerase ribozyme fitness (log ratio)” value: -0.624 for the first, -1.73 for the second.

Going from GAUCAAUCUGCCCUCAGAGCUCGAGAACAUCUUCGGAUGCAGAGGAGGCAGGCUUCGGUGGCGCGAUAGCGCCAACGUCCUCAACCUCCAAUGCAUCCCACCACAUGAUCAUGCCUGAAGAGCCUUGGUUUUUUG to GAUCAAUCUGCCCUCAGAGCUCGAGAACAUCUUCGGAUGCAGAGGAGGCAGGCUUCGGUGGCGCGAUAGCGCCAACGUCCUCAACCUCCAAUGCAUCCCACCACAUGAUGAUCCCUGAAGAGCCUUGGUUUUUUG, the “polymerase ribozyme fitness (log ratio)” value rises from -4.17 to -2.47.

Going from GAUCAAUCUGCCCUCAGAGCUCGAGAACAUCUUCGGAUGCAGAGGAGGCAGGCUUCGGUAGCGCGAUAGCGCCAACGUCCUAAACCUCCAAUGCAUCCCACCACAAGAUGAUGCCUGAAAAGCCUUGGUUUUUUG to GAUCAAUCUGCCCUCAGAGCUCGAGAACAUCUUCGGAUGCAGAGGAGGCAGGCUUCGGUGGCGCGAUAUCGCCAACGUCCUCAACCUCCAAUGCAUCACACCACAUGAUGAUACCUGAAGAGCCUUGGUUUUUUG, the “polymerase ribozyme fitness (log ratio)” value falls from 0.775 to -1.77.
